From patent US20130156770A1 (published 2013) come the findings set out here.

What all share (assay): SPR (Biacore)
In general terms: In SPR one partner is held on a chip, and binding of the other changes the refractive index at the surface.

Test [1] addresses BC 247-C3 x CD3.
For test [2], the target named is BC 244-C6 x CD3.
In test [3] the target is BCMA-107 x CD3.

B1: Human BCMA (receptor)
chain: MLQMAGQCSQNEYFDSLLHACIPCQLRCSSNTPPLTCQRYCNASVTNSVKGTNAILWTCLGLSLIISLAVFVLMFLLRKINSEPLKDEFKNTGSGLLGMANIDLEKSRTGDEIILPRGLEYTVEECTCEDCIKSKPKVDSDHCFPLPAMEEGATILVTTKTNDYCKSLPAALSATEIEKSISAR
The Kd is a measure of binding affinity in units of concentration. A lower Kd goes with tighter binding. In the case of B1, the Kd stood at 0.4 nM in test [1], 0.3 nM in test [2] and 34.2 nM in test [3].
